Results: article PMC4943861 (ACS chemical biology, 2015)

Tests used:
[1] = molecular target: Fyn (human (endogenous in K562), UniProt P06241 1-537); assay: cell-based or functional assay
[2] = molecular target: Abl3D (UniProt P00519 38-512); assay: cell-based or functional assay
Abl3D, sequence (P00519 38-512): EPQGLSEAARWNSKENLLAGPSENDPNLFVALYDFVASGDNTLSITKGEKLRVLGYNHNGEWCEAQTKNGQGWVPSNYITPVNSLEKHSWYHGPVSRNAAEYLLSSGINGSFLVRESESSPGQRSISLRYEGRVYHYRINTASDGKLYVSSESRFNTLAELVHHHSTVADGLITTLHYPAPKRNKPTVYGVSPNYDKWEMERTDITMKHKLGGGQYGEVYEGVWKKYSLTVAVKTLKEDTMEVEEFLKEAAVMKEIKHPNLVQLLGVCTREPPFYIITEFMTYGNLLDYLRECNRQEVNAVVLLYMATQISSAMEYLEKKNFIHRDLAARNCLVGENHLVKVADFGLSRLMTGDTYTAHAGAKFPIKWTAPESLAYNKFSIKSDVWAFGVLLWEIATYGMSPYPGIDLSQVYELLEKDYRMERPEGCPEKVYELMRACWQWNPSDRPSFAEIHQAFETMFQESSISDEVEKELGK

Fyn, sequence (P06241 whole entry): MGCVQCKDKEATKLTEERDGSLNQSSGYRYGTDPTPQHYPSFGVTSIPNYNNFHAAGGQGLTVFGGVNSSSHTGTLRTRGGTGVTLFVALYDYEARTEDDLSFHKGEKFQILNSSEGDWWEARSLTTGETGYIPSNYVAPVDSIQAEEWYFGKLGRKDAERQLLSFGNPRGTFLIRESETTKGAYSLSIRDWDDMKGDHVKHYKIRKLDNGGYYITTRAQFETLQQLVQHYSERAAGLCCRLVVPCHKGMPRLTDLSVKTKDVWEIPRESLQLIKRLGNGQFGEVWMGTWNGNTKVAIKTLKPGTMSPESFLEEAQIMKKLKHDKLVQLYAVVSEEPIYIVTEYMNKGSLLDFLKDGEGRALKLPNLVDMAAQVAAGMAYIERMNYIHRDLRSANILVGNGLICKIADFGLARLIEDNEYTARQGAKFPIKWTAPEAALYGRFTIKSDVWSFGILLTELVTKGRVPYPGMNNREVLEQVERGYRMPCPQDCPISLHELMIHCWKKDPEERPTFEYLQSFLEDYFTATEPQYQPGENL

B1: SNAP(HA4)-4 (designed binder)
chain: DKDCEMKRTTLDSPLGKLELSGCEQGLHEIIFLGKGTSAADAVEVPAPAAVLGGPEPLMQATAWLNAYFHQPEAIEEFPVPALHHPVFQQESFTRQVLWKLLKVVKFGEVISYSHLAALAGNPAATAAVKTALSGNPVPILIPCHRVVQGDLDVGGYEGGLAVKEWLLAHEGHRLGKVSSVPTKLEVVAATPTSLLISWDAPMSSSSVYYYRITYGETGGNSPVQEFTVPYSSSTATISGLSPGVDYTITVYAWGEDSAGYMFMYSPISINYRT
modifications: compound 4 (O6-benzylguanine derivative of the pan-kinase inhibitor 2) covalently conjugated to SNAPtag
IC50 of kinase activity of purified FYN, relative to monovalent 4 [1]: 8 fold more potent than 4 | IC50, in vitro kinase activity assay of Abl3D [2]: 8.3 nM
